In a protein production outcome set (Wang et al. 2014):
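Note: failed if final PepcDB status was selected cloned or expressed and not failed if soluble or beyond.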

Assay: label from the status in PepcDB records
In the case of “MKNSENDYIQSLFQILPGLLTAFLVACLSKFLAIWLPSLGAATIAILLGIFLGNTFVRGANLNRGTKVAESKLLEFSVVLLGTTVTFQTIAQIGLQGVAFILIQMSLTIIFAYLIGKKLAFSDNMSLLMAGGNAVCGSSAIASIAPAIQADEEEKGQIITLVNLLGTVLMLTLPILSGILYGTNLLARSALIGGTLQSVGQVVASANMVNENAVQLAMLFKIMRIVLLVAVVYLFGRFKQSKTAESEAELVEVTKKSSALPWYVVGFFIACVFNSLIHFPVVISETAHFFSSWFEITALAAIGLRLDFKKFFQEGKRFLIYGLSVGTVQVVLAILLLALLQF”, the protein production was “failed”.
With “MKNVEVLTGDPKKAILKLSAPMVVSNLIFTLYNLVDGIWVAGLGPDALSAVGLFFPIFFVFIAISFGLSVGANSAVSRRIGAKRYDAACVAATLAVAMGILVSIPMTLSVVFLNGVMVFLGADGEILRLAVDYGSIMVLGSVFLVFSNVSAGILNGEGNARMAMYANAAGSLLNMVLDPIFIYLLGYGIAGAAIASVISMALSSIVFSFWFLSGRSYVRFRVAGWNLPTVFDLLRVGMPASLSMLTMSVAFMLINRVVIETGGSEGLAAYTSAWRLIQFGFVPLFGVSAALTAVSGAAYGARNPRKIGESLNYTVKLLLAVDAAILALMVAFAPQIALIFTYTEVSAVMYEEIVRTIRIAAFVLLFAPLGVSSSAVFQGMGKGERSFAITVLRAIVFQVSLCYVLAVPFGFDGVLLGFVLGEALGCFTGFSWVRLTVRRLERCLLST” the protein production was “failed”.
For “MKPALRRGLVWIGCTASSWGGLVLPSAWSPAAIAQTRAPTNQTGMQLQINGRAIAGQWVVEPASQGSFIWIEEVALRNGLGLELLPGLSTTRQAIRWFSDGRVAEGVEQVPARRQNGRRFLEVSSLARRSGWSLAVLADQLVIQLPAATLRNLRDGQQGANRRLVLDFDRPTPWEWDAIGQQLRFDGSVPAQLVPSLQRYGIQAEQQGDRTSLRLPAGLGVRVSSLGSPDRIFIDLPTTTGLLSPPAGLGSNPAPLTPAPPDLAGTQLQQRQVTVDGATFPVFVIQLDLRQPNVRLAPIWAGNGSLEGTQVLQAVARDRGAAIAINAGFFNRNNRLPLGAIRRDNIWYSGPILNRGAMAWNDQGEVLIDRLGLQETLQLSSGTRIPLVALNSGYVRAGAARYTEAWGNSYQTILDNEVVVTVQGDRVVSQSQADKAGSNRFTIPRNGYLIVLRSANSLRTSLVNGTTIQVLQQAQPSQFDRFPHALGGGPLLVKSGRVVVNPQAEGFSRAFEIEAAPRSAIGLMPDGRLVLVAAHEQNQGQGPTLPQMAAIMQQLGVVDALNFDGGSSTSLIVNGQLVNRARGSAARVHNGLGVFLGPTTPASLR”, the protein production was “failed”.
In the case of “MKPDIYENNREGILCVYKNEKWLVCIKNWKPDNDIEGIAHLEIHHSTDEQFILSAGKAILITAEKENDKFNIELTLMEKGKVYNVPAECWFYSITQKDTKMMYVQDSNCSMDNSDFCDLSKEEIEYIQTNARKLFEK”, the protein production was “not failed”.
With “MKPLKEYLLIPTQMRVFETQTQAIETSLSVNAQTSESSEAFTVKKDPHEIKVTGKKSGESELVYDLAGFPIKKTKVHVLPDLKVIPGGQSIGVKLHSVGVLVGFHQINTSEGKKSPGETAGIEAGDIIIEMNGQKIEKMNDVAPFIQKAGKTGESLDLLIKRDKQKIKTKLIPEKDEGEGKYRIGLYIRDSAAGIGTMTFYEPKTKKYGALGHVISDMDTKKPIVVENGEIVKSTVTSIEKGTGGNPGEKLARFSSERKTIGDINRNSPFGIFGTLHQPIQNNISDQALPVAFSTEVKKGPAEILTVIDDDKVEKFDIEIVSTTPQKFPATKGMVLKITDPRLLKETGGIVQGMSGSPIIQNGKVIGAVTHVFVNDPTSGYGVHIEWMLSEAGIDIYGKEKASLEHHHHHH” the protein production was “not failed”.
With “MKPNNVNNQNKRHQSRWVITSATAMILTTLTIASQAAAADDTVTTTTNEPTNSQLNTNTQVNATQVNLKADTSTSVSTIKSDQSAVAATSPTTSTGSPSEHSSSVNTNPQQQSANPASQSQATTTSESTPTTDIKHPTQTAPAQTTSASTTEPTTESNTESATDSQAKATTTDNQASKQPSQQAVPASSNSTTTEVNTQSATSSASTDDKIVTNVNQEKLVLKTNQPVVRAISRTASENINDWMPNTLLQQEVLSQLRKQNPDRTWNSAADITKADMLLLTTYYGKDTYIDGKTSYSLEGLQYATNLTTVWLNNNLNAPSGSYYSDVTDISPLANLQKLQVVNIQQNRITDISPLANLKNLTEVDAAYNHISDFSPLKGFKNLKGTFSNQFITLPPAYISADNNIATLAIDCYLPDGSKVQLKPNNGVGETVFYKNGQLYVRWYFNGAGGGNYDSNGHIYYTNMKPQQPGLTGPTFNGTTVIPMDDYYFMTAASDGNNFVVVRPYVLAATAAPITVKYVDALTGESLVTADLTLNGIVGQPYTTQRIDDELPNYDFTNIVGNASGVFTADAQTVTYYYTRKDAGDITIHMVDTNGNLVYEPQILPGKHNLGNAYNLDAPTFDHFKLHQTIGNAAGVFTTDPQSITFVYVRLDAGNITVKYQDKQGHQLKPDKTVSGSQSLGQTYTTEPLGIENYTLMTTPANATGTFTDQEQTVIYVYVRRDAGQIVVKYQDSAGNPLAPDKLLDGKEQLGVAYQTAAISIPNFYLVATPANATGTFSTDTQTVIYQYARSNAGHITVKYQDANGTTLAPDDVLTGDGQLGRPYQTSAKTIENYRLIQTPANATGQFSDQAQTVIYVYTREDAGDITVQYLDENGQQLAADSVLSGQGQLGQPYETSPLNINGYTVKSTQGNTTGTYTVQPQRVVYIYERTAGQPVTAKYQDQDGKSIHPDVVHSGYLGDNYSTEQLVIDGYTFKAVQGDVSGTFGTSAKTVTYVYTESTPTIPDTQGTVTVHYVTKDGIKLNEPTVLSGKTGTTYQTVPLTFTDHELVGQPENATGLFTADNVDVTYVYQATDTTGTDDIIDPEEPEQPTKPIKPTTPETPNEPGTTVTQPDRIKPTQPAVAVKPAATVKPTLKPAAAQASLVKTTSPVTEHSAQLPQTDEQTGKLAVILGLLLSVVTLGFYGKNRQS” the protein production was “failed”.
For “MKPQVYHVDAFTSQPFRGNSAGVVFPADNLSEAQMQLIARELGHSETAFLLHSDDSDVRIRYFTPTVEVPICGHATVAAHYVRAKVLGLGNCTIWQTSLAGKHRVTIEKHNDDYRISLEQGTPGFEPPLEGETRAAIINALHLTEDDILPGLPIQVATTGHSKVMIPLKPEVDIDALSPDLNALTAISKKIGCNGFFPFQIRPGKNETDGRMFSPAIGIVEDPVTGNANGPMGAWLVHHNVLPHDGNVLRVKGHQGRALGRDGMIEVTVTIRDNQPEKVTISGTAVILFHAEWAIEL”, the protein production was “not failed”.
For “MKPSCRPGAALEADRCPSFPDRSAATPHRGLAWAMAVVLIGGCATTRDIEQLQTTSQREPTNAQLKLKYMDERDRQVKDLLDGADRLRLIHDFDRAQVLLLQALRLDPGNERGRRIAAAIDVDRRNGAVLQEAERMMARGSYDGAAERVERVLAETPNDAGALRLYREISEKRRLQKQAAEEKNAAASIMRKPVSLQFRDANVRMVFEALSRTTGLSVIFDRDVRVDLKTTIFVSNASLEDTVDMILLQNQLAKKVLNANTVFIYPATPAKQQEYQDLKVRTFQLSNTDAKHIDTLLKNLLKIKEIVTDERANTVSIRATPETIRVAERMIAAQDLPEPEVMLEVEVLEVSRDRLTDLGIDWPNSFSLGTPSSASTWGALHHLTVNQLTASGLSVTANLKLTDTDANLLASPRIRTRNKEKAKILIGDKVPVISSSSVPSTSGPVYSQSIQYLDVGIKLEVEPQVYRDNDVGIKMSLEVSNITQIISSSNAQTGLSSLAYQIGTRNASTTLRLKDGETQILGGLIQDEDRDAANKVPGLGQLPVLGRLFSNHNGDHKKTEIVLQITPHIVRPQLAADADTREIWSGTDSTVRTEQLRLDPPGVAAPATPAAPAAPAAALPAPAAGVAVVSPGAVGGGTTGGEQTPKAAAPAAAGGVVPPNGAFGQPPAAPRTTPPPAMFGGRFMTTVPPPEGVVPPAPPAPAAAPAAVAAPAAAAPAAPAAGTAGPEAAAAVSPTEAAPPAPAPAAPYTPAPAAPAAAPPAASPPPIVPTPPSDMPSDNPLHPIPTGAY”, the protein production was “failed”.
In the case of “MKPSTEWWRYLAPLAVIAIIALLPVPAGLENHTWLYFAVFTGVIVGLILEPVPGAVVAMVGISIIAILSPWLLFSPEQLAQPGFKFTAKSLSWAVSGFSNSVIWLIFAAFMFGTGYEKTGLGRRIALILVKKMGHRTLFLGYAVMFSELILAPVTPSNSARGAGIIYPIIRNLPPLYQSQPNDSSSRSIGSYIMWMGIVADCVTSAIFLTAMAPNLLLIGLMKSASHATLSWGDWFLGMLPLSILLVLLVPWLAYVLYPPVLKSGDQVPRWAETELQAMGPLCSREKRMLGLMVGALVLWIFGGDYIDAAMVGYSVVALMLLLRIISWDDIVSNKAAWNVFFWLASLITLATGLNNTGFISWFGKLLAGSLSGYSPTMVMVALIVVFYLLRYFFASATAYTSALAPMMIAAALAMPEIPLPVFCLMVGAAIGLGSILTPYATGPSPIYYGSGYLPTADYWRLGAIFGLIFLVLLVITGLLWMPVVLL”, the protein production was “failed”.
